Laboratory results taken from patent US20200062832A1 (QUIDEL, published 2020).

T1: recombinant DbpA full length protein (without signal sequence), Borrelia burgdorferi decorin-binding protein A (Borrelia burgdorferi, UniProt O50917 30-191)
T1 construct: also called DpbA; DbpA antigen
T1 sequence: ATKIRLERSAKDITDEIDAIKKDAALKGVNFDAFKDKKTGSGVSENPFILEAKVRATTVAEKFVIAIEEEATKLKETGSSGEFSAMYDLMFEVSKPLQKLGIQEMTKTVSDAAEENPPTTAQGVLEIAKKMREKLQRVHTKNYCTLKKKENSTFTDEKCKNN

B1: MAb 6G8 (mouse hybridoma monoclonal antibody) (antibody)
heavy: QVQLQQPGAELVKPGASVKLSCKASGYTFTRYWMYWVKQRPGRGLEWIGRLDPNSGVTKYNEKFKSKATLTVDKSSSTAYMQLSSLTSEDSAVYYCVRDDSWYFDVWGTGTTVTVSSAKTTPPSVYPLAPGSAAQTNSMVTLGCLVKGYFPEPVTVTWNSGSLSSGVHTFPAVLQSDLYTLSSSVTVPSSTWPSQTVTCNVAHPASSTKVDKKIVPRDCGCKPCICTVPEVSSVFIFPPKPKDVLTITLTPKVTCVVVDISKDDPEVQFSWFVDDVEVHTAQTKPREEQINSTFRSVSELPIMHQDWLNGKEFKCRVNSAAFPAPIEKTISKTKGRPKAPQVYTIPPPKEQMAKDKVSLTCMITNFFPEDITVEWQWNGQPAENYKNTQPIMDTDGSYFVYSKLNVQKSNWEAGNTFTCSVLHEGLHNHHTEKSLSLSPGK
light: EIQMTQSPSSMSASLGDRITITCQATQDIVKNLNWYQQKPGKPPSFLIYYATELAEGVPSRFSGSGSGSDYSLTINNLESQDFADYFCLQFYAFPLTFGAGTKLELRRADAAPTVSIFPPSSEQLTSGGASVVCFLNNFYPRDINVKWKIDGSERQNGVLNSWTDQDSKDSTYSMSSTLTLTKDEYERHNSYTCEATHKTSTSPIVKSFNRGEC
notes: Mouse IgG1 kappa, tested as hybridoma culture supernatant; copies: 2 + 2
B2: 6G8 chimeric IgM (antibody)
heavy: QVQLQQPGAELVKPGASVKLSCKASGYTFTRYWMYWVKQRPGRGLEWIGRLDPNSGVTKYNEKFKSKATLTVDKSSSTAYMQLSSLTSEDSAVYYCVRDDSWYFDVWGTGTTVTVSSAKTTPPSVYPLAPGSAAQTNSMVTLGCLVKGYFPEPVTVTWNSGSLSSGVHTFPAVLQSDLYTLSSSVTVPSSTWPSQTVTCNVAHPASSTKVDKKILPVIAELPPKVSVFVPPRDGFFGNPRKSKLICQATGFSPRQIQVSWLREGKQVGSGVTTDQVQAEAKESGPTTYKVTSTLTIKESDWLSQSMFTCRVDHRGLTFQQNASSMCVPDQDTAIRVFAIPPSFASIFLTKSTKLTCLVTDLTTYDSVTISWTRQNGEAVKTHTNISESHPNATFSAVGEASICEDDWNSGERFTCTVTHTDLPSPLKQTISRPKGVALHRPDVYLLPPAREQLNLRESATITCLVTGFSPADVFVQWMQRGQPLSPEKYVTSAPMPEPQAPGRYFAHSILTVSEEEWNTGETYTCVVAHEALPNRVTERTVDKSTGKPTLYNVSLVMSDTAGTCY
light: B1 light
notes: Heavy chain is mouse VH-CH1 plus human IgM mu chain CH2-4; also called 6G8 chimera; 6G8 (26394.1.a)
B3: MAb 8C10 (mouse hybridoma monoclonal antibody) (antibody)
heavy: QVQLQQSGAELMKPGASVKLSCKAAGYTFTDYWIEWVKQRPGHGLEWIGEILPGSGSTKDNERFKGKATFTADTSSNTAYMQLSSLTTEDSAIYYCARREWGYYFDYWGQGTTLTVSSAKTTPPSVYPLAPGSAAQTNSMVTLGCLVKGYFPEPVTVTWNSGSLSSGVHTFPAVLQSDLYTLSSSVTVPSSTWPSQTVTCNVAHPASSTKVDKKIVPRDCGCKPCICTVPEVSSVFIFPPKPKDVLTITLTPKVTCVVVDISKDDPEVQFSWFVDDVEVHTAQTKPREEQINSTFRSVSELPIMHQDWLNGKEFKCRVNSAAFPAPIEKTISKTKGRPKAPQVYTIPPPKEQMAKDKVSLTCMITNFFPEDITVEWQWNGQPAENYKNTQPIMDTDGSYFVYSKLNVQKSNWEAGNTFTCSVLHEGLHNHHTEKSLSLSPGK
light: DIVMTQSHKFMSTSVGDRVSITCKASQDVSTAVAWYQQKPGQSPKLLIYWASTRHTGVPDRFTGSGSGTDYTLTISSVQAEDLALYYCQQHYSTPYTFGGGTKLEIKRADAAPTVSIFPPSSEQLTSGGASVVCFLNNFYPRDINVKWKIDGSERQNGVLNSWTDQDSKDSTYSMSSTLTLTKDEYERHNSYTCEATHKTSTSPIVKSFNRGEC
notes: Mouse IgG (gamma/kappa), tested as hybridoma culture supernatant; Signal peptides are positions 1-19 (heavy) and 1-20 (light); copies: 2 + 2

Key:
[1] = target: T1, recombinant DbpA full length protein …; assay: Octet BLI, DbpA 100 nM (summary table)
[2] = target: T1, recombinant DbpA full length protein …; assay: Biacore SPR (summary table)
[3] = target: T1, recombinant DbpA full length protein …; assay: Octet BLI, mAb on anti-mIgG Fc sensor, DbpA 100 nM
[4] = target: T1, recombinant DbpA full length protein …; assay: Biacore SPR, supernatant over DbpA chip
[5] = target: T1, recombinant DbpA full length protein …; assay: Biacore SPR, DbpA on CM5 chip

Binder | Kd [1] | koff [1] | kon [1] | Kd [2] | Kd [3] | koff [3] | kon [3] | Kd [4] | koff [4] | kon [4] | Kd [5] | koff [5] | kon [5]
B1 | 976 pM | 0.000977 s⁻¹ | 1e+06 M⁻¹ s⁻¹ | 0.25 pM | 976 pM | 0.000977 s⁻¹ | 1e+06 M⁻¹ s⁻¹ | 0.25 pM | 5e-08 s⁻¹ | 200000 M⁻¹ s⁻¹ | – | – | –
B2 | – | – | – | – | – | – | – | – | – | – | 1.96 pM | 2.45e-05 s⁻¹ | 1.25e+07 M⁻¹ s⁻¹
B3 | < 1 pM | < 1e-07 s⁻¹ | 356000 M⁻¹ s⁻¹ | 1.2 pM | < 1 pM | < 1e-07 s⁻¹ | 356000 M⁻¹ s⁻¹ | 1.2 pM | 1.3e-07 s⁻¹ | 100000 M⁻¹ s⁻¹ | – | – | –
